The target of this experiment is Rpn11 (deubiquitinase of the lid, 3XFLAG-tagged, in the 26S holoenzyme) (S. cerevisiae, UniProt P43588 1-306). In words: cryo-EM structure.

B1: ubiquitin (S. cerevisiae), the proximal, substrate-attached moiety of the polyubiquitin chain (natural protein)
chain: not shown
modifications: C terminus joined to the substrate lysine by an isopeptide bond; part of a K63-linked chain
With B1, the binding result is listed as “binds”.
